Test results taken from patent US20260167699A1 (Chugai, published 2026).
Numbering of substitutions follows the chain as printed.

B1: Kn125-L4-GS7 (antibody, human IgG1, kappa)
heavy 1: QDQLVQSGAEVKKPGASVKVSCKASGFNIKDTYIQWVRQAPGQGLEWMGRIDPLRKQTKYREKFEGRVTITADTSTNTAYMELSSLRSEDTAVYYCVRSGREFDYWGQGTLVTVSSASTKGPSVFPLAPSSKSTSGGTAALGCLVKDYFPEPVTVSWNSGALTSGVHTFPAVLQSSGLYSLSSVVTVPSSSLGTQTYICNVNHKPSNTKVDKKVEPKSCDKTHTCPPCPAPELLGGPSVFLFPPKPKDTLMISRTPEVTCVVVDVSHEEPEVKFNWYVDGVEVHNAKTKPREEQYNSTYRVVSVLTVLHQDWLNGKEYKCKVSNDALPMPIEETISKAKGQPREPQVYTLPPSRCELTKNQVSLSCAVKGFYPSDIAVEWESNGQPENNYKTTPPVLDSDGSFFLVSKLTVDKSRWQQGNVFSCSVMHEALHNHYTQKSLSLSP
heavy 2: QDQLVQSGAEVKKPGASVKVSCKASGFNIKDTYIQWVRQAPGQGLEWMGRIDPLRKQTKYREKFEGRVTITADTSTNTAYMELSSLRSEDTAVYYCVRSGREFDYWGQGTLVTVSSASTKGPSVFPLAPSSKSTSGGTAALGCLVKDYFPEPVTVSWNSGALTSGVHTFPAVLQSSGLYSLSSVVTVPSSSLGTQTYICNVNHKPSNTKVDKKVEPKSCDKTHTCPPCPAPEYQWGPMVFLFPPKPKDTLMISRTPEVTCVVVDVSDEEPEVKFNWYVDGVEVHNAKTKPREEQYNATYRVVSVLTVLHQDWLNGKEYKCKVSNGGSGGGSPIEKTISKAKGQPREPQVCTLPPSRDELTKNQVSLWCLVKGFYPSDIAVEWESNGQPENNYKTTPPVLDSDGSFFLYSKLTVDKSRWQQGNVFSCSVMHEALHNHYTQKSLSLSP
light: DIQMTQSPSSLSASVGDRVTITCRASQDIHKYIAWYQQKPGQAPRLLIQYTSTLQPGVPSRFSGSGSGTDYTFTISSLQPEDIATYYCLQYEQLRTFGGGTKVEIKRTVAAPSVFIFPPSDEQLKSGTASVVCLLNNFYPREAKVQWKVDNALQSGNSQESVTEQDSKDSTYSLSSTLTLSKADYEKHKVYACEVTHQGLSSPVTKSFNRGEC
notes: heterodimerized anti-EREG antibody: altered H240-Kn125 chain (Gly/Ser peptide in loop) with H240-Hl076 and L73-k0
B2: Kn125-L2a-9 (antibody, human IgG1, kappa)
heavy 1: B1 heavy 1
heavy 2: QDQLVQSGAEVKKPGASVKVSCKASGFNIKDTYIQWVRQAPGQGLEWMGRIDPLRKQTKYREKFEGRVTITADTSTNTAYMELSSLRSEDTAVYYCVRSGREFDYWGQGTLVTVSSASTKGPSVFPLAPSSKSTSGGTAALGCLVKDYFPEPVTVSWNSGALTSGVHTFPAVLQSSGLYSLSSVVTVPSSSLGTQTYICNVNHKPSNTKVDKKVEPKSCDKTHTCPPCPAPEYQWGPMVFLFPPKPKDTLMISRTPEVTCVVVDVSDEGGSGGSGGSEPEVKFNWYVDGVEVHNAKTKPREEQYNATYRVVSVLTVLHQDWLNGKEYKCKVSNKALPAPIEKTISKAKGQPREPQVCTLPPSRDELTKNQVSLWCLVKGFYPSDIAVEWESNGQPENNYKTTPPVLDSDGSFFLYSKLTVDKSRWQQGNVFSCSVMHEALHNHYTQKSLSLSP
light: B1 light
notes: as for B1
B3: Kn125-L4-3 (antibody, human IgG1, kappa)
heavy 1: B1 heavy 1
heavy 2: QDQLVQSGAEVKKPGASVKVSCKASGFNIKDTYIQWVRQAPGQGLEWMGRIDPLRKQTKYREKFEGRVTITADTSTNTAYMELSSLRSEDTAVYYCVRSGREFDYWGQGTLVTVSSASTKGPSVFPLAPSSKSTSGGTAALGCLVKDYFPEPVTVSWNSGALTSGVHTFPAVLQSSGLYSLSSVVTVPSSSLGTQTYICNVNHKPSNTKVDKKVEPKSCDKTHTCPPCPAPEYQWGPMVFLFPPKPKDTLMISRTPEVTCVVVDVSDEEPEVKFNWYVDGVEVHNAKTKPREEQYNATYRVVSVLTVLHQDWLNGKEYKCKVSNKGGSALPAPIEKTISKAKGQPREPQVCTLPPSRDELTKNQVSLWCLVKGFYPSDIAVEWESNGQPENNYKTTPPVLDSDGSFFLYSKLTVDKSRWQQGNVFSCSVMHEALHNHYTQKSLSLSP
light: B1 light
notes: as for B1
B4: Kn125-L2a-3 (antibody, human IgG1, kappa)
heavy 1: B1 heavy 1
heavy 2: QDQLVQSGAEVKKPGASVKVSCKASGFNIKDTYIQWVRQAPGQGLEWMGRIDPLRKQTKYREKFEGRVTITADTSTNTAYMELSSLRSEDTAVYYCVRSGREFDYWGQGTLVTVSSASTKGPSVFPLAPSSKSTSGGTAALGCLVKDYFPEPVTVSWNSGALTSGVHTFPAVLQSSGLYSLSSVVTVPSSSLGTQTYICNVNHKPSNTKVDKKVEPKSCDKTHTCPPCPAPEYQWGPMVFLFPPKPKDTLMISRTPEVTCVVVDVSDEGGSEPEVKFNWYVDGVEVHNAKTKPREEQYNATYRVVSVLTVLHQDWLNGKEYKCKVSNKALPAPIEKTISKAKGQPREPQVCTLPPSRDELTKNQVSLWCLVKGFYPSDIAVEWESNGQPENNYKTTPPVLDSDGSFFLYSKLTVDKSRWQQGNVFSCSVMHEALHNHYTQKSLSLSP
light: B1 light
notes: as for B1
B5: Kn125-L4-9 (antibody, human IgG1, kappa)
heavy 1: B1 heavy 1
heavy 2: QDQLVQSGAEVKKPGASVKVSCKASGFNIKDTYIQWVRQAPGQGLEWMGRIDPLRKQTKYREKFEGRVTITADTSTNTAYMELSSLRSEDTAVYYCVRSGREFDYWGQGTLVTVSSASTKGPSVFPLAPSSKSTSGGTAALGCLVKDYFPEPVTVSWNSGALTSGVHTFPAVLQSSGLYSLSSVVTVPSSSLGTQTYICNVNHKPSNTKVDKKVEPKSCDKTHTCPPCPAPEYQWGPMVFLFPPKPKDTLMISRTPEVTCVVVDVSDEEPEVKFNWYVDGVEVHNAKTKPREEQYNATYRVVSVLTVLHQDWLNGKEYKCKVSNKGGSGGSGGSALPAPIEKTISKAKGQPREPQVCTLPPSRDELTKNQVSLWCLVKGFYPSDIAVEWESNGQPENNYKTTPPVLDSDGSFFLYSKLTVDKSRWQQGNVFSCSVMHEALHNHYTQKSLSLSP
light: B1 light
notes: as for B1
B6: Kn125-L2a-6 (antibody, human IgG1, kappa)
heavy 1: B1 heavy 1
heavy 2: QDQLVQSGAEVKKPGASVKVSCKASGFNIKDTYIQWVRQAPGQGLEWMGRIDPLRKQTKYREKFEGRVTITADTSTNTAYMELSSLRSEDTAVYYCVRSGREFDYWGQGTLVTVSSASTKGPSVFPLAPSSKSTSGGTAALGCLVKDYFPEPVTVSWNSGALTSGVHTFPAVLQSSGLYSLSSVVTVPSSSLGTQTYICNVNHKPSNTKVDKKVEPKSCDKTHTCPPCPAPEYQWGPMVFLFPPKPKDTLMISRTPEVTCVVVDVSDEGGSGGSEPEVKFNWYVDGVEVHNAKTKPREEQYNATYRVVSVLTVLHQDWLNGKEYKCKVSNKALPAPIEKTISKAKGQPREPQVCTLPPSRDELTKNQVSLWCLVKGFYPSDIAVEWESNGQPENNYKTTPPVLDSDGSFFLYSKLTVDKSRWQQGNVFSCSVMHEALHNHYTQKSLSLSP
light: B1 light
notes: as for B1
B7: Kn125-L4-GS11 (antibody, human IgG1, kappa)
heavy 1: B1 heavy 1
heavy 2: QDQLVQSGAEVKKPGASVKVSCKASGFNIKDTYIQWVRQAPGQGLEWMGRIDPLRKQTKYREKFEGRVTITADTSTNTAYMELSSLRSEDTAVYYCVRSGREFDYWGQGTLVTVSSASTKGPSVFPLAPSSKSTSGGTAALGCLVKDYFPEPVTVSWNSGALTSGVHTFPAVLQSSGLYSLSSVVTVPSSSLGTQTYICNVNHKPSNTKVDKKVEPKSCDKTHTCPPCPAPEYQWGPMVFLFPPKPKDTLMISRTPEVTCVVVDVSDEEPEVKFNWYVDGVEVHNAKTKPREEQYNATYRVVSVLTVLHQDWLNGKEYKCKVSNGGSGGGSGGGSPIEKTISKAKGQPREPQVCTLPPSRDELTKNQVSLWCLVKGFYPSDIAVEWESNGQPENNYKTTPPVLDSDGSFFLYSKLTVDKSRWQQGNVFSCSVMHEALHNHYTQKSLSLSP
light: B1 light
notes: as for B1
B8: Kn125-L2b-3 (antibody, human IgG1, kappa)
heavy 1: B1 heavy 1
heavy 2: B4 heavy 2 with G269E, S271G, E272S
light: B1 light
notes: as for B1
B9: Kn125-L2b-9 (antibody, human IgG1, kappa)
heavy 1: B1 heavy 1
heavy 2: B2 heavy 2 with G269E, S271G, G272S, S274G, G275S, S277G, E278S
light: B1 light
notes: as for B1
B10: Kn125-L4-6 (antibody, human IgG1, kappa)
heavy 1: B1 heavy 1
heavy 2: B7 heavy 2 with G325K, S327G, G328S, G332A, G333L, G334P, S335A
light: B1 light
notes: as for B1
B11: Kn125-L2b-6 (antibody, human IgG1, kappa)
heavy 1: B1 heavy 1
heavy 2: B6 heavy 2 with G269E, S271G, G272S, S274G, E275S
light: B1 light
notes: as for B1

Target: T1, FcγRIIIaV (human, UniProt P08637 17-208)
T1 construct: extracellular domain
Assay: SPR (Biacore), antibody captured, FcγR as analyte, 1:1 Langmuir fit
Method: The antibody of interest was analyzed for its interaction with FcγR using a BiaCore™ T100, BiaCore™ A100, or BiaCore™ 4000 surface plasmon resonance system (GE Healthcare Japan Corp.). The running buffer used was HBS-EP+ (GE Healthcare Japan Corp.). The assay temperature was set to 25° C. The sensor chips used were: a chip prepared by immobilizing antigenic peptides onto Series S Sensor Chip CM5 (GE Healthcare Japan Corp.) by the amine coupling method; a chip prepared by immobilizing antigenic peptides biotinylated in advance onto Series S Sensor Chip SA (certified) (GE Healthcare Japan Corp.) through their interaction; a chip prepared by immobilizing protein L (ACTIGEN, BioVision, Inc.) onto Series S Sensor Chip CM5 (GE Healthcare Japan Corp.); and a chip prepared by immobilizing protein A/G (Thermo Fisher Scientific K.K.) onto Series S Sensor Chip CM5 (GE Healthcare Japan Corp.). The antibody of interest was captured onto any of these chips and allowed to interact with FcγR diluted with a running buffer. The antibody captured on the chip was washed off through the reaction of 10 mM glycine-HCl (pH 1.5) to regenerate the chip, which was repetitively used.

T1 sequence (P08637 other isoform, or with tags, fused parts or gaps): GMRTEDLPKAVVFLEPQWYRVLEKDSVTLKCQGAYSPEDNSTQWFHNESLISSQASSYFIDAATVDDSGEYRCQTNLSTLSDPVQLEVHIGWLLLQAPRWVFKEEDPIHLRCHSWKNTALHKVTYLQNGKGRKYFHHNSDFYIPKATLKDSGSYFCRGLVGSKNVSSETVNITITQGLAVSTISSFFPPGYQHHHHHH

Kd | Binder
2 nM | B1
11 nM | B2
6.9 nM | B3
10 nM | B4
1.7 nM | B5
9.2 nM | B6
1.5 nM | B7
7.8 nM | B8
7 nM | B9
1.7 nM | B10
6.3 nM | B11
